Results: doi:10.1101/2022.01.05.475133 (bioRxiv, 2022)

Key:
FLAG-MBP-WT human TRPA1 = FLAG-MBP-WT human TRPA1 (human, UniProt O75762 1-1119); assay: pull-down + co-IP
SEC = target: the molecule itself; assay: SEC
[1] = target: 3xFLAG-tagged WT human TRPA1 (human, UniProt O75762 1-1119); assay: co-IP + SEC

B1: Strep-MBP-R919* human TRPA1 (domain or fragment, UniProt O75762 1-918, looked up)
chain: MKRSLRKMWRPGEKKEPQGVVYEDVPDDTEDFKESLKVVFEGSAYGLQNFNKQKKLKRCDDMDTFFLHYAAAEGQIELMEKITRDSSLEVLHEMDDYGNTPLHCAVEKNQIESVKFLLSRGANPNLRNFNMMAPLHIAVQGMNNEVMKVLLEHRTIDVNLEGENGNTAVIIACTTNNSEALQILLKKGAKPCKSNKWGCFPIHQAAFSGSKECMEIILRFGEEHGYSRQLHINFMNNGKATPLHLAVQNGDLEMIKMCLDNGAQIDPVEKGRCTAIHFAATQGATEIVKLMISSYSGSVDIVNTTDGCHETMLHRASLFDHHELADYLISVGADINKIDSEGRSPLILATASASWNIVNLLLSKGAQVDIKDNFGRNFLHLTVQQPYGLKNLRPEFMQMQQIKELVMDEDNDGCTPLHYACRQGGPGSVNNLLGFNVSIHSKSKDKKSPLHFAASYGRINTCQRLLQDISDTRLLNEGDLHGMTPLHLAAKNGHDKVVQLLLKKGALFLSDHNGWTALHHASMGGYTQTMKVILDTNLKCTDRLDEDGNTALHFAAREGHAKAVALLLSHNADIVLNKQQASFLHLALHNKRKEVVLTIIRSKRWDECLKIFSHNSPGNKCPITEMIEYLPECMKVLLDFCMLHSTEDKSCRDYYIEYNFKYLQCPLEFTKKTPTQDVIYEPLTALNAMVQNNRIELLNHPVCKEYLLMKWLAYGFRAHMMNLGSYCLGLIPMTILVVNIKPGMAFNSTGIINETSDHSEILDTTNSYLIKTCMILVFLSSIFGYCKEAGQIFQQKRNYFMDISNVLEWIIYTTGIIFVLPLFVEIPAHLQWQCGAIAVYFYWMNFLLYLQRFENCGIFIVMLEVILKTLLRSTVVFIFLLLAFGLSFYILLNLQDPFSSPLLSIIQTFSMMLGDINY
In the case of B1, the “stoichiometry N” value (FLAG-MBP-WT human TRPA1) is reported as 1.3 R919* subunits per WT subunit.

B2: GFP-tagged WT human TRPA1 (natural protein, UniProt O75762 1-1119, looked up)
chain: MKRSLRKMWRPGEKKEPQGVVYEDVPDDTEDFKESLKVVFEGSAYGLQNFNKQKKLKRCDDMDTFFLHYAAAEGQIELMEKITRDSSLEVLHEMDDYGNTPLHCAVEKNQIESVKFLLSRGANPNLRNFNMMAPLHIAVQGMNNEVMKVLLEHRTIDVNLEGENGNTAVIIACTTNNSEALQILLKKGAKPCKSNKWGCFPIHQAAFSGSKECMEIILRFGEEHGYSRQLHINFMNNGKATPLHLAVQNGDLEMIKMCLDNGAQIDPVEKGRCTAIHFAATQGATEIVKLMISSYSGSVDIVNTTDGCHETMLHRASLFDHHELADYLISVGADINKIDSEGRSPLILATASASWNIVNLLLSKGAQVDIKDNFGRNFLHLTVQQPYGLKNLRPEFMQMQQIKELVMDEDNDGCTPLHYACRQGGPGSVNNLLGFNVSIHSKSKDKKSPLHFAASYGRINTCQRLLQDISDTRLLNEGDLHGMTPLHLAAKNGHDKVVQLLLKKGALFLSDHNGWTALHHASMGGYTQTMKVILDTNLKCTDRLDEDGNTALHFAAREGHAKAVALLLSHNADIVLNKQQASFLHLALHNKRKEVVLTIIRSKRWDECLKIFSHNSPGNKCPITEMIEYLPECMKVLLDFCMLHSTEDKSCRDYYIEYNFKYLQCPLEFTKKTPTQDVIYEPLTALNAMVQNNRIELLNHPVCKEYLLMKWLAYGFRAHMMNLGSYCLGLIPMTILVVNIKPGMAFNSTGIINETSDHSEILDTTNSYLIKTCMILVFLSSIFGYCKEAGQIFQQKRNYFMDISNVLEWIIYTTGIIFVLPLFVEIPAHLQWQCGAIAVYFYWMNFLLYLQRFENCGIFIVMLEVILKTLLRSTVVFIFLLLAFGLSFYILLNLQDPFSSPLLSIIQTFSMMLGDINYRESFLEPYLRNELAHPVLSFAQLVSFTIFVPIVLMNLLIGLAVGDIAEVQKHASLKRIAMQVELHTSLEKKLPLWFLRKVDQKSTIVYPNKPRSGGMLFHIFCFLFCTGEIRQEIPNADKSLEMEILKQKYRLKDLTFLLEKQHELIKLIIQKMEIISETEDDDSHCSFQDRFKKEQMEQRNSRWNTVLRAVKAKTHHLEP
With B2 the “stoichiometry N” value (SEC) was 4 and the “stoichiometry N” value [1] was 4.
